According to paper PMC8142254, “The mycobacterial proteasomal ATPase Mpa forms a gapped ring to engage the 20S proteasome” (The Journal of Biological Chemistry, 2021):

Tests used:
[1] = target: Mycobacterium tuberculosis open-gate 20S proteasome core particle (20SOG CP) (Mycobacterium tuberculosis) (UniProt P9WHU1); test: negative-stain EM; 2 M equivalents of Mpa hexamer, 3 M equivalents of Pup and 1 M equivalent of 20SOG CP with 3 mM ATP on ice for 40 min; 2D class averages of side views, capped versus uncapped CPs counted
[2] = target: Mycobacterium tuberculosis open-gate 20S proteasome core particle (20SOG CP) (Mycobacterium tuberculosis) (UniProt P9WHU1); test: negative-stain EM; 2 M equivalents of Mpa hexamer, 3 M equivalents of Pup and 1 M equivalent of 20SOG CP with 3 mM ADP on ice for 40 min; 2D class averages of side views, capped versus uncapped CPs counted

Chain of Mycobacterium tuberculosis open-gate 20S proteasome core particle (20SOG CP) (Mycobacterium tuberculosis) (P9WHU1 whole entry, chain 1 of 2): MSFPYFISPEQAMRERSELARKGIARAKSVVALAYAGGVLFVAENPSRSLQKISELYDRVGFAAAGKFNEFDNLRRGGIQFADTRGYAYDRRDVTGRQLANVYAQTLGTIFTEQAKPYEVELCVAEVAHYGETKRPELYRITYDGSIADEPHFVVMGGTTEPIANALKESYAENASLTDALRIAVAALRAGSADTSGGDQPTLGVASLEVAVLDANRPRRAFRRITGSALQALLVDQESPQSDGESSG
Chain of Mycobacterium tuberculosis open-gate 20S proteasome core particle (20SOG CP) (Mycobacterium tuberculosis) (P9WHT9 58-291, chain 2 of 2, further chain): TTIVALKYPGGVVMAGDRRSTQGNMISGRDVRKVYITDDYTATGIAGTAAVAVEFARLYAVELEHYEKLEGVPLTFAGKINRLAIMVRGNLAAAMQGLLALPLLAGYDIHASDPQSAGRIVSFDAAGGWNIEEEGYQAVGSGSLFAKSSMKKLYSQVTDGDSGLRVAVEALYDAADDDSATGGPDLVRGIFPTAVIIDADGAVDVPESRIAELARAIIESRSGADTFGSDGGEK

B1: Mycobacterium tuberculosis proteasomal ATPase Mpa, full-length (1–609) (enzyme)
chain: MGESERSEAFGIPRDSPLSSGDAAELEQLRREAAVLREQLENAVGSHAPTRSARDIHQLEARIDSLAARNSKLMETLKEARQQLLALREEVDRLGQPPSGYGVLLATHDDDTVDVFTSGRKMRLTCSPNIDAASLKKGQTVRLNEALTVVEAGTFEAVGEISTLREILADGHRALVVGHADEERVVWLADPLIAEDLPDGLPEALNDDTRPRKLRPGDSLLVDTKAGYAFERIPKAEVEDLVLEEVPDVSYADIGGLSRQIEQIRDAVELPFLHKELYREYSLRPPKGVLLYGPPGCGKTLIAKAVANSLAKKMAEVRGDDAHEAKSYFLNIKGPELLNKFVGETERHIRLIFQRAREKASEGTPVIVFFDEMDSIFRTRGTGVSSDVETTVVPQLLSEIDGVEGLENVIVIGASNREDMIDPAILRPGRLDVKIKIERPDAEAAQDIYSKYLTEFLPVHADDLAEFDGDRSACIKAMIEKVVDRMYAEIDDNRFLEVTYANGDKEVMYFKDFNSGAMIQNVVDRAKKNAIKSVLETGQPGLRIQHLLDSIVDEFAENEDLPNTTNPDDWARISGKKGERIVYIRTLVTGKSSSASRAIDTESNLGQYL
notes: Mpa (mycobacterial proteasome ATPase), Mycobacterium tuberculosis, full-length, residues 1-609; Homohexamer; In the cryo-EM model the coiled-coil domains and two of the six AAA domains are not resolved; also called mycobacterial proteasome ATPase; WT Mpa
- percent of 20SOG CPs bound to Mpa hexamer [1]: 37%
- percent of 20SOG CPs bound to Mpa hexamer [2]: 8%
